The labels stand for the following.
B1: 33 (protein)
chain: MELAIRNGIVFNGKEIIGKTNIYVREGKIVEVSREDHSAKMEIDAKDMFVMPGLIDAHIHLSGIKGGSLLKIMFEKPEYRVLSAAKWLEKLLLAGFTTVRDCGETVSLALKRALNDGIIGGPKVIAAGKPITQTFGHGELSHDVPLEFSKTMSFSEFCDGMESCIHAARKVLRDGADFIKIFATGGVLSQRDRPEHPQLSYEEIRAIVNEAEKVNTYVAAHAHGDRGARIAIEAGVKTLEHGTLLKDETLKLMKEKNVTLTPTLTIQELIFKYGKQIGVDEWGLQKITSVRENIANVVRKAKEYGVTIISGTDLGFETGLEEIDMGKNWMETVLLVERGGLSPIEALRASTYNAAMAIGINAGVIEIGKDADIIIINGDPTLNVREISKITHVVKNGKLTVENKSIKG
modifications: exemplary polypeptide
B2: 74 (protein)
chain: MTTRTRILTAFLSLLAANACAADAAPAAPHTVVLRAARMFDGASGKLVDHPQLTIVGNKIVRIAQGDKAEVPAGAEVVDLGDATLLPGFIDAHVHLSGQSSDNWYGDFFDNMMRFPAEQALYGAYYARITLEAGFTSVRDVGSTDWVALGLRNAIDAGKVPGPRMLVSNYLVGSTGGHADQDPIPPHKLPLAGPLQGVCNGPEECRAAVRYQIKYGANVIKFMPSGGVLSLSDPVDAPELSQDEMNAVIGESHAWGRKVAAHAHGDKAAKMAVAAGVDSIEHGSFIEDDTLRAMKAKNVYLVPTISAIAHVEEKIGTFPPVIAEKGRAAAAHLRQTFRHAVQIGVPIALGTDAGVGAHGSNAREFRYMVENGLTPAQALLAGTANAARLLGTFDRVGTLEAGKLADVVAVPGNPIADITVTERPLFVMKDGVVVRRDAVR
modifications: exemplary polypeptide
B3: 78 (protein)
chain: B2 chain with L171A, A307G, V311T
modifications: exemplary polypeptide
B4: 79 (protein)
chain: B2 chain with L171A, A307G, V355T
modifications: exemplary polypeptide
B5: 75 (protein)
chain: B2 chain with L171A, H178Q
modifications: exemplary polypeptide
B6: 31 (protein)
chain: MELAIRNGIVFNGKEVIGKTNIYVREGKIVEVSREDHSAKMEIDAKDMFVMPGLIDAHIHLSGIKGGSLLKIMFEKPEYRVLRAAKWLEKLLLAGFTTVRDCGETVSLALKRAVNDGIVDGPKVIAAGKPITQTFGHGELSHDVPLEFSKTMSFSEFCDGMESCIHAARKVLRDGADFIKIFATGGVLSQRDTPEHPQLSYEEIRAIVNEAEKVNSYVAAHAHGDRGARIAIEAGVKTLEHGTLLKDETLKLMKEKNVTLTPTLTIQELIFKYGKQIGVDEWGLQKITSVRESIANVVRKAKEYGVTIISGTDLGFETGLEEIEMGKNWMETVLLVERGGLSPIEALRASTYNAAMAIGINAGVIEIGKDADIIIINGDPTQNVREISKITHVIKNGKLTVENKSIKG
modifications: exemplary polypeptide
B7: 32 (protein)
chain: B1 chain with I16V, G27E, V32I, S83R, G120D, V394I
modifications: exemplary polypeptide
B8: 34 (protein)
chain: B1 chain with S83R, V394I
modifications: exemplary polypeptide

Substitutions are numbered along the chain they refer to.

This series can be described thus: Thermostability assay: residual OTA detoxification activity after 10 min incubation at 45-99° C. (T50). The following applies: 0.1 mg/mL protein in 20 mM Tris-HCl pH 7.5, residual OTA detoxification activity relative to 4° C. reference aliquot. It counts as physicochemical. On the procedure:
Stability was determined in terms of thermostability. Notwithstanding, a person having skill in the art is aware that stability towards high temperature (e.g. more than 30° C.) often correlates with stability towards other non-standard conditions such as stability towards acidic or basic pH (e.g. below pH 6.5 or above pH 7.5, respectively), towards elevated salt concentrations, organic solvents or drying.
To determine the kinetic stability of the produced enzymes, thermostability assays were performed. To this end, purified protein samples were diluted to a protein concentration of 0.1 mg/mL in 20 mM Tris-HCl buffer pH 7.5 and aliquots were incubated in a thermocycler for 10 min at either 45, 55, 65, 75, 80, 85, 90, 95 or 99° C. After this incubation, the aliquots were stored at 4° C. until further analysis. A reference aliquot was stored at 4° C. throughout the incubation. Subsequently, all aliquots were assayed for residual OTA detoxification activity using the assay described in Example 3. Residual enzyme activities were calculated relative to the reference aliquot. The temperature range in which 50% of the initial activity was lost after the incubation (T50), in relation to the reference aliquot was determined.
Consider B1, for which the “T50 (temperature at which 50% of the initial activity was maintained)” value is greater than 95 °C.
Next, B2: less than 63.2 °C.
The value for B3 was 68.8-70.7 °C.
With B4, the “T50 (temperature at which 50% of the initial activity was maintained)” value is 70.7-72.6 °C.
Regarding B5, the “T50 (temperature at which 50% of the initial activity was maintained)” value is 74.4-77.0 °C.
Take B6: the “T50 (temperature at which 50% of the initial activity was maintained)” value was greater than 95 °C.
On to B7, for which the “T50 (temperature at which 50% of the initial activity was maintained)” value is greater than 95 °C.
For the molecule B8, the “T50 (temperature at which 50% of the initial activity was maintained)” value was greater than 95 °C.

For the origin of these results see US20240352438A1, “MEANS AND METHODS FOR DETOXIFYING OCHRATOXIN A” (DSM Austria GmbH, priority 2021, published 2024).
